Where no end group is shown, it is not given here.
Key:
[1] = molecular target: ferroportin C-terminally fused with green fluorescent protein (human), Q9NP59; experiment: cell-based or functional assay
[2] = molecular target: T1, human hepcidin-25 (human, not fully specified); experiment: SPR (BIAcore), Fab captured on goat anti-human kappa, human hepcidin-25 injected, 25 C
T1 construct: also called human mature hepcidin
T1 peptide: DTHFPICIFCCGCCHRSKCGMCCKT
Description: (§1) Except as noted, all reagents and materials are purchased from BIAcore® AB (Upsala, Sweden). All measurements are performed at 25° C. Samples are dissolved in HBS-EP buffer (150 mM sodium chloride, 3 mM EDTA, 0.05% (w/v) surfactant P-20, and 10 mM HEPES, pH 7.4). To capture Fabs with human kappa, goat-anti-human kappa is immobilized on flow cells 1 to 4 of a CM5 sensor chip at a level of 5000-10000 response units (Rus) using an amine coupling kit. To capture Mabs with mouse IgG1, goat-anti-mouse Fc gamma is immobilized on flow cells 1 to 4 of a CM5 sensor chip at a level of 5000-10000 Rus using an amine coupling kit. To capture antibodies with human IgG4, protein A is immobilized on flow cells 1 to 4 of a CM4 sensor chip at a level of 400-700 Rus using an amine coupling kit. Fabs prepared from E. coli periplasma and Mabs prepared from mammalian cell culture are evaluated using multiple analytical cycles. […] The measurements are obtained at 25° C. and the association and dissociation rates for each cycle are evaluated using a “1:1 with mass transfer” binding model in the BLAevaluation software.

[3] = molecular target: T2, rat hepcidin-25 (rat, UniProt Q99MH3 60-84); experiment: SPR (BIAcore), 25 C
T2 construct: mature
T2 peptide (looked up): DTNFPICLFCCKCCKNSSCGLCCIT
Description: as §1

[4] = molecular target: T3, mouse hepcidin-25 (mouse, UniProt Q9EQ21 59-83); experiment: SPR (BIAcore), captured Mab, mouse hepcidin-25 injected, 25 C
T3 construct: mature
T3 peptide (looked up): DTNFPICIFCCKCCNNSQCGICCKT
Description: as §1

[5] = molecular target: T4, cynomolgus monkey hepcidin-25 (cynomolgus monkey, UniProt A7XEI3 60-84, not fully specified); experiment: SPR (BIAcore), captured Mab, cynomolgus monkey hepcidin-25 injected, 25 C
T4 construct: mature; also called mature cynomolgous monkey hepcidin
T4 peptide: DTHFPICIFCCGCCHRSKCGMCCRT
Description: as §1

[6] = molecular target: T1, human hepcidin-25; experiment: SPR (BIAcore), Mab captured on protein A, human hepcidin-25 injected, 25 C
Description: as §1

[7] = molecular target: T4, cynomolgus monkey hepcidin-25; experiment: SPR (BIAcore), 25 C
Description: as §1

ferroportin C-terminally fused with green fluorescent protein (human), Q9NP59, sequence (Q9NP59 whole entry, the tested form may be a part): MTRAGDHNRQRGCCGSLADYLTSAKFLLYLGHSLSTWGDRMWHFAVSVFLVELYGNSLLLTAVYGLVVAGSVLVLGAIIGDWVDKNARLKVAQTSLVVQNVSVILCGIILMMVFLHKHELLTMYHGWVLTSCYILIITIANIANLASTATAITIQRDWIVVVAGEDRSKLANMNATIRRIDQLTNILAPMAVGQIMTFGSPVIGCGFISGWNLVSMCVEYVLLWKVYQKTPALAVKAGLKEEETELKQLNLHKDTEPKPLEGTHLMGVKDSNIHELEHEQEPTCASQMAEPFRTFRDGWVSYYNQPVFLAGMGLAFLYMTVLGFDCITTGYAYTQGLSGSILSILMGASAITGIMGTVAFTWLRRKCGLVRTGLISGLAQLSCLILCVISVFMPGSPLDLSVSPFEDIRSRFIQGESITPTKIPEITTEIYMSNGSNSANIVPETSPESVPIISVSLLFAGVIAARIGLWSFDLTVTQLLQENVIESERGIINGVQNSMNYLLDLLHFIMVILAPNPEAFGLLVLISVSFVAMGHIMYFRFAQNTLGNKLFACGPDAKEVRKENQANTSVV

DTHFPICIFCCGCCHRSKCGMCCKT (ends and bridges not checked; cysteine pairing not given here) [human hepcidin-25]
hepcidin-induced internalization and degradation of ferroportin (FPN-GFP fluorescence in HEK 293 cells), concentration of maximal effect [1]: 0.5 µM

B1: Fab 3.12 (Fab, V domains shown)
VH: QVQLVQSGAEVKKPGSSVKVSCKASGYTFLIYPISWVRQAPGQGLEWMGNFHPYLGVTNYLEKFKGRVTITADKSTSTAYMELSSLRSEDTAVYYCARGGTGSFDYWGQGTTVTVSS
VL: DIQMTQSPSSLSASVGDRVTITCSASSRVSSTYLFWYQQKPGKAPKLLIYRTSTLTSGVPSRFSGSGSGTDFTLTISSLQPEDFATYYCQQWSGYPFVFGGGTKVEIK
notes: Fab with human kappa, from E. coli periplasm; frameworks O2 and VH1-69
Kd [2]: 88.3 pM | koff [2]: 0.000347 s⁻¹ | kon [2]: 3.94e+06 M⁻¹ s⁻¹

B2: Mab 3.23 (antibody, human IgG4 S228P, kappa, V domains shown)
VH: QVQLVQSGAEVKKPGSSVKVSCKASGYTFLIYPISWVRQAPGQGLEWMGNFHPYLGVTNYVEKFKGRVTITADKSTSTAYMELSSLRSEDTAVYYCARGGTGSFDYWGQGTTVTVSS
VL: DIQMTQSPSSLSASVGDRVTITCSASSRVSSTYLFWYQQKPGKAPKLLIYRTSPLASGVPSRFSGSGSGTDFTLTISSLQPEDFATYYCQQWSGYPFVFGGGTKVEIKR
binding result [3]: no binding | Kd [4]: 50100 pM | koff [4]: 0.192 s⁻¹ | kon [4]: 3.83e+06 M⁻¹ s⁻¹ | Kd [5]: 88.8 pM | koff [5]: 0.000577 s⁻¹ | kon [5]: 6.51e+06 M⁻¹ s⁻¹ | Kd [6]: 99.4 pM | koff [6]: 0.000659 s⁻¹ | kon [6]: 6.2e+06 M⁻¹ s⁻¹

B3: Mab 3.12 (antibody, human IgG4 S228P, kappa, V domains shown)
VH: QVQLVQSGAEVKKPGSSVKVSCKASGYTFLIYPISWVRQAPGQGLEWMGNFHPYLGVTNYLEKFKGRVTITADKSTSTAYMELSSLRSEDTAVYYCARGGTGSFDYWGQGTTVTVSS
VL: DIQMTQSPSSLSASVGDRVTITCSASSRVSSTYLFWYQQKPGKAPKLLIYRTSTLTSGVPSRFSGSGSGTDFTLTISSLQPEDFATYYCQQWSGYPFVFGGGTKVEIKR
Kd [6]: 59.9 pM | koff [6]: 0.00022 s⁻¹ | kon [6]: 3.68e+06 M⁻¹ s⁻¹

B4: Mab Hu22 (antibody, human IgG4 S228P, kappa, V domains shown)
VH: QVQLVQSGAEVKKPGSSVKVSCKASGYTFTIYPISWVRQAPGQGLEWMGNFHPYLGDTNYNEKFKGRVTITADKSTSTAYMELSSLRSEDTAVYYCARGGTGSFDYWGQGTTVTVSS
VL: DIQMTQSPSSLSASVGDRVTITCSASSRVSSTYLFWYQQKPGKAPKLLIYRTSTLASGVPSRFSGSGSGTDFTLTISSLQPEDFATYYCQQWSGYPFTFGGGTKVEIKR
binding result [3]: no binding | Kd [4]: 77600 pM | koff [4]: 0.126 s⁻¹ | kon [4]: 1.62e+06 M⁻¹ s⁻¹ | Kd [5]: 986 pM | koff [5]: 0.00816 s⁻¹ | kon [5]: 8.13e+06 M⁻¹ s⁻¹ | Kd [6]: 764 pM | koff [6]: 0.00864 s⁻¹ | kon [6]: 1.09e+07 M⁻¹ s⁻¹

B5: Fab Hu22 (Fab, V domains shown)
VH: QVQLVQSGAEVKKPGSSVKVSCKASGYTFTIYPISWVRQAPGQGLEWMGNFHPYLGDTNYNEKFKGRVTITADKSTSTAYMELSSLRSEDTAVYYCARGGTGSFDYWGQGTTVTVSS
VL: DIQMTQSPSSLSASVGDRVTITCSASSRVSSTYLFWYQQKPGKAPKLLIYRTSTLASGVPSRFSGSGSGTDFTLTISSLQPEDFATYYCQQWSGYPFTFGGGTKVEIK
notes: as for B1
Kd [2]: 647 pM | koff [2]: 0.00456 s⁻¹ | kon [2]: 7.05e+06 M⁻¹ s⁻¹

B6: Fab 3.23 (Fab, V domains shown)
VH: QVQLVQSGAEVKKPGSSVKVSCKASGYTFLIYPISWVRQAPGQGLEWMGNFHPYLGVTNYVEKFKGRVTITADKSTSTAYMELSSLRSEDTAVYYCARGGTGSFDYWGQGTTVTVSS
VL: DIQMTQSPSSLSASVGDRVTITCSASSRVSSTYLFWYQQKPGKAPKLLIYRTSPLASGVPSRFSGSGSGTDFTLTISSLQPEDFATYYCQQWSGYPFVFGGGTKVEIK
notes: as for B1
Kd [2]: 78.8 pM | koff [2]: 0.000278 s⁻¹ | kon [2]: 3.53e+06 M⁻¹ s⁻¹

B7: Mab L1.5 (antibody, human IgG4 S228P, kappa, V domains shown)
VH: QVQLVQSGAEVKKPGSSVKVSCKASGYTFLIYPISWVRQAPGQGLEWMGNFHPYLGVTNYLEKFKGRVTITADKSTSTAYMELSSLRSEDTAVYYCARGGTGSFDYWGQGTTVTVSS
VL: DIQMTQSPSSLSASVGDRVTITCSAESRVSSTYLFWYQQKPGKAPKLLIYRTSPLASGVPSRFSGSGSGTDFTLTISSLQPEDFATYYCQQWSGYPFTFGGGTKVEIKR
Kd [6]: 34.2 pM | koff [6]: 0.000182 s⁻¹ | kon [6]: 5.31e+06 M⁻¹ s⁻¹

B8: Mab 3.8 (antibody, human IgG4, V domains shown)
VH: QVQLVQSGAEVKKPGSSVKVSCKASGYTFLIYPISWVRQAPGQGLEWMGNFHPYLGVTNYLEKFKGRVTITADKSTSTAYMELSSLRSEDTAVYYCARGGTGSFDYWGQGTTVTVSS
VL: DIQMTQSPSSLSASVGDRVTITCSASSRVSSTYLFWYQQKPGKAPKLLIYRTSPLASGVPSRFSGSGSGTDFTLTISSLQPEDFATYYCQQWSGYPFTFGGGTKVEIKR
notes: Human engineered Mab, human IgG4
fold lower KD than for human hepcidin-25 [7]: > 10 fold | Kd [4]: 34600 pM | koff [4]: 0.124 s⁻¹ | kon [4]: 3.57e+06 M⁻¹ s⁻¹ | Kd [5]: 9.33 pM | koff [5]: 0.00066 s⁻¹ | kon [5]: 7.07e+07 M⁻¹ s⁻¹ | Kd [6]: 105 pM | koff [6]: 0.000768 s⁻¹ | kon [6]: 5.58e+06 M⁻¹ s⁻¹

B9: Fab 1.7 (Fab, V domains shown)
VH: QVQLVQSGAEVKKPGSSVKVSCKASGYTFTIYPISWVRQAPGQGLEWMGNFHPYLGDTRYVEKFKGRVTITADKSTSTAYMELSSLRSEDTAVYYCARGGTGSFDYWGQGTTVTVSS
VL: DIQMTQSPSSLSASVGDRVTITCSASSRVSSTYLFWYQQKPGKAPKLLIYRTSTLVSGVPSRFSGSGSGTDFTLTISSLQPEDFATYYCQQWSGYPFVFGGGTKVEIK
notes: Fab with human kappa
Kd [2]: 422 pM | koff [2]: 0.00148 s⁻¹ | kon [2]: 3.8e+06 M⁻¹ s⁻¹

Source: US20090136495A1 (Eli Lilly, published 2009)
